The DeepSol protein solubility set

Assay: soluble on expression in E. coli; label from the status in PepcDB or PDB records
With “MVIRSVSRFLQGNNWPDVSKIYKTIVEKWRNENPDQNAHFSLEVTGPTGTSGVVTVKPSEEIGKSEKVSEEKSSEKPSIEVATTSLKRYPPAHMRVRDKLVGILSASGLRIGLPSSVSLVFSRSDLGSATSSTERICASSQEVASTMSLPDPSQSGITDSFPRVFKEFDFLEAEHDSVSETADSCFGWLSTMRPTREKDDERASIRSSLRNLSSGGQGGEEEEEEPEEDEESESHEEEENSESDDLPRKVEDDDLEEEDEDEEERTPCPSECCDDDREDVEMMLRQDIEAYASRGGSVAASSMADDDLRSRLTNNIVSISSQMTEHRHLEEENTSVDGSSVCAYSNASMLASEYYPNRTRSLRIQCSHHLDSRIEREFSMSVNEINESNDCNLLAYGTLLSTQLYKSSCGKVCALLRDASHILTNRAMSRSFASAQETLCNVVDIPFLFVTEQFLRNSPICQRLKFTLNELKEHWETFDERRDQCQKNTTNFGRKYKLFEILDFRKKNLKGINSLRSAYKLSALGGSTSSFSLTSELDLGKLLNKLVFQVKLMIDALKDMSDAVKNSTSSQTYSLSPAILEHHRELLMCASDDAASSVNSSLSRLNIDDSISRSQHSCDSLVLLLANKRYTQALQAVRQLRRTYGEEYGCCETVDVDVLLLLFCRSHSLKAWALVGASSEELTRQSELLREANAELASCLRRNAQSLQNMERMTPSMGSASMTESFAQLPSSSDHYD” the “soluble on expression in E. coli” value was “not soluble”.
With “GPLGSKNMLLEWCRAMTRNYEHVDIQNFSSSWSSGMAFCALIHKFFPEAFDYAELDPAKRRHNFTLAFSTAEKLADCAQLLEVDDMVRLAVPDSKCVYTYIQELYRSLVQKGLVKTKKK” the “soluble on expression in E. coli” value was “soluble”.
In the case of “MSLVLMIVSGRSGSGKSVALRALEDMGFYCVDNLPVVLLPDLARSLADRNISAAVSIDVRNMPESPEIFEQAMQNLPECFSPQLLFLDADRNTLIRRYSDTRRLHPLSSKNLSLESAIDEESDLLEPLRSRADLIVDTSEMSVHELAEMLRTRLLGKRERELTMVFESFGFKHGIPIDADYVFDVRFLPNPHWDPKLRPMTGLDKPVAAFLDRHTEVHNFIYQTRSYLELWLPMLETNNRSYLTVAIGCTGGKHRSVYIAEQLADYFRSRGKNVQSRHRTLEKRKSEGGSHHHHHH”, the “soluble on expression in E. coli” value is reported as “soluble”.
With “MTRNGTTSLQHDEMDTTSPPSGSGSGTAPPTTATSPPDYATAATLRSTPAQMSAAITVDLVVAAQREANFLRMIDRKAPLLYEPDVVNHALRRYETFWLPMQAAHPDLNVIPPLDVHWVWHTHMLSPIHYQEDCEKLVGKIIDHKLLSSDEIQKRYDSSVRAWDSYCSAEPYDFLASQTPPTAYKTKCNYDIAGAVQRQRNFNYQVSLPHYTSAKFLSDAVKRYIQFLLLKQTYADQFLTPCYDFDIIWHTHQVHPSSYLRDCTAIFGSLLKHDDTVNDRTKGSKLLKGEALTKKLWTTHFDEPFWRRGCMFRGHNAPAFLGFESQDLACISYGDIHVPSISLKDIPVQREQLRLKLCYGNKKVTTFNADLSQKQVTKSGFSLVWQPTESSTCASIVKFPFERRAAKDLTVELEIFDKMFLQRKDLIKLIGKATLDQLLPPSNSKSAHNVAELQLKASKDSEFTAKVNVTTSVNLNRELQLLVGDFVERQLSADSHLAYLAQCASLNRGALNANSTVHIASHSMVDTRDGTKYTVQVIHSAPLLLSMILVYGREQRLLSMAHLIGADSLPSRDQLDNNLVPFLPHLSNAEERAFVILNKEGDYAIIKGKWSGFSRKQSATKGQKAKPGNPGRLHVDAFNLLKNTVQKLEVPSADGSALFLIGDAQARLPGKRIECRSTNTAEQIASIFCVATLFVLCNPDKIRSRNDSTSVGHQAHKWPLTLACGYGRQLPTNRLLLSADQDGLGGCEIAPMLMCGVGCDGAACGACGACGACGACGGCGGCGGCGGCGGCG” the “soluble on expression in E. coli” value was “not soluble”.
With “MGSSHHHHHHSSGLVPRGSHMMIVIMDNGGQYVHRIWRTLRYLGVETKIIPNTTPLEEIKAMNPKGIIFSGGPSLENTGNCEKVLEHYDEFNVPILGICLGHQLIAKFFGGKVGRGEKAEYSLVEIEIIDEDEIFKGLPKRLKVWESHMDEVKELPPKFKILARSETCPIEAMKHEELPIYGVQFHPEVAHTEKGEEILRNFAKLCGEL” the “soluble on expression in E. coli” value was “soluble”.
In the case of “MTCARCGYVREDLTLFDRVFVCPKCGWIVDRDYNASLNILRRSGSERPSVWSSAFYRWQGGAMKQEALSVRGGLEHHHHHH”, the “soluble on expression in E. coli” value is reported as “not soluble”.
With “MTDTQYIGRFAPSPSGELHFGSLIAALGSYLQARARQGRWLVRIEDIDPPREVPGAAETILRQLEHYGLHWDGDVLWQSQRHDAYREALAWLHEQGLSYYCTCTRARIQSIGGIYDGHCRVLHHGPDNAAVRIRQQHPVTQFTDQLRGIIHADEKLAREDFIIHRRDGLFAYNLAVVVDDHFQGVTEIVRGADLIEPTVRQISLYQLFGWKVPDYIHLPLALNPQGAKLSKQNHAPALPKGDPRPVLIAALQFLGQQAEAHWQDFSVEQILQSAVKNWRLTAVPESAIVNSTFSNASC” the “soluble on expression in E. coli” value was “soluble”.
For “MGLCLAKRNHDADDDEPHIELAGGNVHLITTKERWDQKLSEASRDGKIVLANFSARWCGPCKQIAPYYIELSENYPSLMFLVIDVDELSDFSASWEIKATPTFFFLRDGQQVDKLVGANKPELHKKITAILDSLPPSDK”, the “soluble on expression in E. coli” value was “soluble”.
With “SDVNECLTIPEACKGEMKCINHYGGYLCLPRSAAVINDLHGEGPPPPVPPAQHPNPCPPGYEPDDQDSCVD” the “soluble on expression in E. coli” value was “soluble”.
In the case of “SLRYSKLTMLIPCALLLSACTTVTPAYKDNGTRSGPCVEGGPDNVAQQFYDYRILHRSNDITALRPYLSDKLATLLSDASRDNNHRELLTNDPFSSRTTLPDSAHVASASTIPNRDARNIPLRVDLKQGDQGWQDEVLMIQEGQCWVIDDVRYLGGSVHATAGTLRQSIENR”, the “soluble on expression in E. coli” value is reported as “not soluble”.
In the case of “MGSDKIHHHHHHMAAQNAFEQKKRAILNEIDSTQPDLSPKGTIDELCLPIIDLINASADMVTTSSCSGRVSVFLEGTKSYNGEVKIGGKGQGGKWLYVTHDREKVIGWLDELKSKSEFSFELSGKEIPTEKVTGSIRYILYKYEPFILHVKCRDFQAASKLYNTAMSCGFRESGIGSNNLVAIRINIKLDVPLGYLDETSGTLKFFVTPEYVSVLDSLSLSKFDENTRKMQALYDRIEKELINCAPDVNSKVNITPIETKEERRERKKREGMERQRQLKSPQNVL”, the “soluble on expression in E. coli” value is reported as “not soluble”.
With “METRRAERINKLIQALKRSDKIHLKDAANLLRVSEMTIRRDLSAEPTSVILLGGYVVMDPKSNNANNYFVSDQQAKQVEEKRRIGQLAAQLIIENDTVFFDCGTTIPWIIDEIDEELAFTAICYSLNTFLALQDKPNCKVILCGGEFKPNNCIFTPLSQQSELDNICPNKAFISAAGVSIEYGATCFNFDEILLKHRAMAKSQYKILVADHSKFGKIKPASIGTLAQFDALVTDRPPVAEFYLFFSQHSVKIYC” the “soluble on expression in E. coli” value was “not soluble”.
In the case of “MFFIHKLFPAKLIRRYKRFLADVKREDQHIFTVSVPNTGSMLGLTTPNSNIWLSYHNNPKRRYAYQLEIVEANNTLVGINTTLPNKLALEAIQNNLLPELNGYKTILKEQRYGIQSRIDFLLRDDILPDCYLEIKNVHFIRQKGLAEFPDTETKRGTRHLEELIKIVQQGKRAVMLYIIQREDCSAFTICRDLDPTYGRKFDLALESGVEFYAIKCQVSVEGIFPIQQVKIENRK”, the “soluble on expression in E. coli” value is reported as “not soluble”.
For “GPLGSLYAIVLYDFKAEKADELTTYVGENLFICAHHNCEWFIAKPIGRLGGPGLVPVGFVSIIDIATGYATGNDVIEDIKSVNLPTVQEWKSNIARYKASNISLGSVE”, the “soluble on expression in E. coli” value was “soluble”.
For “MGSDKIHHHHHHMGSSGMGVDANGKPIKRQPTTNNNNKKAGNNSNNQKKGNNQNNKNNKNQNGGNRNQNRQHHQPPMMQMVPPFGPMGPGGPGGPGFMGPPNGNMNFFNGQNRRNGSGKDTMDHRLTMWDKELLEIT”, the “soluble on expression in E. coli” value was “not soluble”.
For “GQDQRRRRIVSRRIYKRIMLKPHYLSIPEAQLEAMNNIQLNPIMKLINNNSDSPVMLSSPPDIFTAGKDMFDCFFRDIEAARHHVHIQFYVIEDDHLGSRLSDLLIRKVQEGVKVRVIFDHVGSWATGRGYWKRLRRAGVEAYPFMPVFFPILSSRVNYRNHRKVAVIDGKIGYLGGMNVADRYYSGNRLGLWRDTHFRMMGNVVAGLQSSFLLDWYVVSRRVINLSGYYPDLPIPVSDEGVKIQLVRSGPVGQWRTIEQATIYCIERACEHVYIETPYFLPTEGLN”, the “soluble on expression in E. coli” value was “not soluble”.
In the case of “MGSDKIHHHHHHMIFIPPFEQGKLLRRYKRFLADVLLDDGTEITIHCPNTGSMRNCLFPGERVWFSTSDNPKRKYAHTWEQAASDEGHIIGINTGRANALAAEAIEAGVISELTGYDRLRREVKYGSENSRIDLLLESEDKPACYIEVKSCTLLEQGQGYFPDAVTTRGQKHLRELMEMVKQGHRAVLLFVVQHTGITTVAAARHIDPEYAELLTQAHQAGVEILAYSCELSPSAAKLIKSCPVKL”, the “soluble on expression in E. coli” value is reported as “not soluble”.
With “MGHHHHHHSHMAVRRPGCFLCREEAADLSSLKSMLDQLGVPLYAVVKEHIRTEVKDFQPYFKGEIFLDEKKKFYGPQRRKMMFMGFIRLGVWYNFFRAWNGGFSGNLEGEGFILGGVFVVGSGKQGILLEHREKEFGDKVNLLSVLEAAKMIKPQTLASEKK” the “soluble on expression in E. coli” value was “not soluble”.
For “EPMQVVKQRRDAALNALVSGVPFIRFLNITFDRRGDELTGVLNFDDKLIGNPFLPAIHGGVTAAFLEVTAVITLSWAHLFERIESGDLAPEDILTDENMRFPKTIDFTIDYLRSGLPRDAYARAYISRAGRRYASVRVEAWQDHHDKLYAQGTGHFLMP”, the “soluble on expression in E. coli” value was “not soluble”.
In the case of “DQVDVKDCANNEIKKVMVDGCHGSDPCIIHRGKPFTLEALFDANQNTKTAKIEIKASLDGLEIDVPGIDTNACHFVKCPLVKGQQYDIKYTWNVPKIAPKSENVVVTVKLIGDNGVLACAIATHGKIRD”, the “soluble on expression in E. coli” value is reported as “soluble”.
For “MDVNVNIDTNAEKQAISPYIYGTNQDFSNAKVTARRIGGNRSTGYNWENNDSNAGTDWKNESDNYWLTLYDVPKEKYNEPASVYTAFHDKSLAMGVPYSLVTLQAGGYVAADQSGPLANTDVAPSSKWKKVEFNKNGPLSLTPDTTDGSVYMDEFVNYLVNKYGSASGSKGIKGYSLDNEPSLWPSTHPLIHPDKTKCSEVLDKDTQLAQVVKKIDPAAETFGPALFGFSAFNDFNSSPDWSSVKGNYQWFIDYYLDNMKKNSDAAGKRLLDALDLHWYPEAKGGGQRVTTSDTSNVDCNKARMQAPRSLWDSTYTEDSWIGQWCKWGLPLIPKVKSSIDKYYPGTKLSFSEYNYGGEDHISGGIAQADALGVFGKYGVYFATYWECNSDKNNYVQSAFNLYNNYDGNNSKYGDTDVKCDTSDINNSSTYASVTSNDGNKMDIIVMNKNYTDSINFNFNVSSNKNYTSGQVWGFDSNSSNITKRDDVSSISGNKFTYKIPALTAVHIVLLEHHHHHH”, the “soluble on expression in E. coli” value was “soluble”.
For “HTLNKALADTRANLTESVGNAGEVLHDITGVVSTPMPSENDSENLFDSVSNYPTGNKSDTHNAFGSSGKTAPMPYQSAYAPQQRSLSLRESRAAMNTYAELYKKTDDIDLELSRFEQARFGNMPSETPAPQTDTPLSDGIPSQSELPPLGFAIAQLLGIYILAQAEDSLLLIDMHAAAERVNYEKMKRQRQENGNLQSQRLLIPVTFAASHEECAALADYAETLAGFGLELSDMGGNTLAVRAVPAMLGKADVVSLAKDVLNELAQVGSSQTIEEHENRILATMSCHGSIRAGRRLTLPEMNALLRDMENTPRSNQCNHGRPTWVKLTLKELDALFLRGQ”, the “soluble on expression in E. coli” value was “not soluble”.
In the case of “MGQGQTKSEQKLSEQTLRKFYDAQLENQLIAENLKWAQQRAVDLLKVRDQLQWEVLAAATTTVVLLAAGSIYKRKDVIIPIVPLIMGCGYQYDVAHGDNRQLVRETAVELLKTPEELHMLPAITLRDIDEFRDSHKL”, the “soluble on expression in E. coli” value is reported as “not soluble”.
For “MTETIKVSESLELHAVAENHVKPLYQLICKNKTWLQQSLNWPQFVQSEEDTRKTVQGNVMLHQRGYAKMFMIFKEDELIGVISFNRIEPLNKTAEIGYWLDESHQGQGIISQALQALIHHYAQSGELRRFVIKCRVDNPQSNQVALRNGFILEGCLKQAEFLNDAYDDVNLYARIIDSQ”, the “soluble on expression in E. coli” value was “soluble”.
